Target: human recombinant Akt1-GST (not treated with H2O2) (human) (UniProt P31749)
Sequence of UniProt P31749 (P31749 whole entry): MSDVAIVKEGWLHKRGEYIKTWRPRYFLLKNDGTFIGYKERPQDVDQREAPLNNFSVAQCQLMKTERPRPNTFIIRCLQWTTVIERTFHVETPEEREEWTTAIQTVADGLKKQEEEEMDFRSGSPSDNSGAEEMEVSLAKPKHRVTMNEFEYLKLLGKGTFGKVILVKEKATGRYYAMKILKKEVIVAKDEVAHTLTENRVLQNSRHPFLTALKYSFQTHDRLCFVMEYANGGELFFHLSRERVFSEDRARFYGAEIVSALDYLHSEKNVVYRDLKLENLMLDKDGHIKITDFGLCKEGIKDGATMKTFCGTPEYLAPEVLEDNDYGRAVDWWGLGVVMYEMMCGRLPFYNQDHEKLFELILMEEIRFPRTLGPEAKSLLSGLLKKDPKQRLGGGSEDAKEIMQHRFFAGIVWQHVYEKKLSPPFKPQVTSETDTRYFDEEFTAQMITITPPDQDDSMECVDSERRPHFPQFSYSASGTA

Akt1 activity (formation of P-GSK-3 α/β in vitro) of Akt1 immunoprecipitated from mitochondrial extracts of NIH cells treated with low to high H2O2; decreased to 45% of control at high H2O2: 150%
Substance: PDK1 (PI3K-dependent kinase 1) of NIH/3T3 mitochondrial fractions (from UniProt Q9Z2A0 1-559) (enzyme)

Reference: PMC2761088
